Columns and labels:
Cynomolgus CD73 ECD = test: Surface plasmon resonance (ProteOn), cynomolgus CD73; assay type: binding; conditions: SPR
Procedure: (§1) A ProteOn XPR36 instrument was used to characterize binding of MEDI9447 to human, murine, and cynomolgus CD73 ECD. MEDI9447 was affinity-captured using an anti-human Fc antibody. CD73 ECD was in the mobile phase. The association and dissociation of CD73 to MEDI9447 could be accurately described with the Langmuir 1:1 model.
(§2) The affinity of enhanced anti-CD73 antibodies (in IgG1-TM format) to human, murine, and cynomolgus CD73 was determined by flow cytometry and surface plasmon resonsance (SPR) (Table 13). The enhanced antibodies had pM affinity to cellular and recombinant CD73 from the three species.

huCD73 = molecular target: T1, huCD73 (Homo sapiens, UniProt P21589); test: Solution binding, human CD73; conditions: as measured by solution binding
T1 sequence (P21589 27-549): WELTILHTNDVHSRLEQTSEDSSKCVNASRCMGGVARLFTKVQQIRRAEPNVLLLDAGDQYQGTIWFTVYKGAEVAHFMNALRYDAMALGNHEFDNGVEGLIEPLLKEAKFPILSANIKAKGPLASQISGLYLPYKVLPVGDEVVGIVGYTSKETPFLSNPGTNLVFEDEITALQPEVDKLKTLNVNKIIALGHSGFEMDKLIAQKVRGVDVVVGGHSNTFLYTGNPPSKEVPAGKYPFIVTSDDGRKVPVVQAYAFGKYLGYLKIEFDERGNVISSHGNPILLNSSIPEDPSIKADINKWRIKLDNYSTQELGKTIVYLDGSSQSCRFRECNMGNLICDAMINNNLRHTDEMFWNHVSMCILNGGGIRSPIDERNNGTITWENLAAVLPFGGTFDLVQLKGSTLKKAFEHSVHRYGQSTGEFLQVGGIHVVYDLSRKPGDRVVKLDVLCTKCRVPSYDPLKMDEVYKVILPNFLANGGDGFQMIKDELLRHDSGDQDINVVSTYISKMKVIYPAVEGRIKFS

[1] = molecular target: T2, native CD73, MDA-MB-231 cells (Homo sapiens, UniProt P21589); test: Flow cytometry binding to native CD73, MDA-MB-231 cells
T2 construct: native CD73 expressed on human, murine, and cynomolgus monkey cell lines; endogenous in cells; host or cells: MDA-MB-231
T2 sequence (P21589 27-549): T1 sequence (P21589 27-549)
Procedure: (§3) Binding of MEDI9447 to native CD73 expressed on human, murine, and cynomolgus monkey cell lines was characterized by flow cytometry. The cells were incubated with various concentrations of MEDI9447 and antibody binding was monitored with and fluorophore-labeled anti-human Fc antibody. A plot of the median fluorescence intensity as a function of the MEDI9447 concentration was fitted nonlinearly using a one-site binding isotherm model to calculate the equilibrium dissociation constant.
as §2
(§4) All flow cytometry experiments were run at 4C and reagents were prepared in PBS/1% FBS buffer. 10,000 cells were incubated with test antibody in 50 uL volume for 4 hours. Cells were washed twice and incubated in 50 uL goat anti-human IgGFc-AlexaFluor647 conjugate for 15 minutes. Cells were washed, resuspended in buffer supplemented with Dapi, and analyzed on a flow cytometer. […] For the determination of KD values, a plot of the median fluorescence intensity as a function of test antibody concentration was fitted nonlinearly using a one site binding isotherm model.

Murine CD73 ECD = molecular target: T3, Murine CD73 ECD (Mus musculus, UniProt Q61503); test: Surface plasmon resonance (ProteOn), murine CD73; assay type: binding; conditions: SPR
T3 construct: made in house; host or cells: mammalian cells
T3 sequence (Q61503 29-551 limits assumed): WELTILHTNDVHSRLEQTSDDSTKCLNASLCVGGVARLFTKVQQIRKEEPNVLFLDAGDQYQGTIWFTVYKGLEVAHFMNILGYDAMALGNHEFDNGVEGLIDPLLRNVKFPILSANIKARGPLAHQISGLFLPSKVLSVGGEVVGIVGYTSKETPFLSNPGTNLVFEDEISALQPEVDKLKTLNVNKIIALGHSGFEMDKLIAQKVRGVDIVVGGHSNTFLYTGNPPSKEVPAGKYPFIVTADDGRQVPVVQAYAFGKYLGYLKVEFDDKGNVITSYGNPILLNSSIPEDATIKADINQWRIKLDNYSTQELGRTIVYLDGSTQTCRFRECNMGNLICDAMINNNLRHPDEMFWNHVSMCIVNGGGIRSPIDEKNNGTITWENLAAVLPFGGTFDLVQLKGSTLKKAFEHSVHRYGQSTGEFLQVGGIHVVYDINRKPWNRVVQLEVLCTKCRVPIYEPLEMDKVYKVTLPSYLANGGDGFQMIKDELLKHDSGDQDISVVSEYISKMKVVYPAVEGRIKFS
Procedure: as §1, §2

murine CD73 = molecular target: T4, murine CD73 (Mus musculus, UniProt Q61503); test: Solution binding, murine CD73; conditions: as measured by solution binding
T4 sequence (Q61503 29-551): T3 sequence (Q61503 29-551 limits assumed)

human CD73 ECD = molecular target: T5, human CD73 ECD (Homo sapiens, UniProt P21589); test: Surface plasmon resonance (ProteOn), human CD73; assay type: binding; conditions: SPR
T5 construct: made in house; host or cells: mammalian cells
T5 sequence (P21589 27-549 limits assumed): T1 sequence (P21589 27-549)
Procedure: as §1, §2

native CD73, MK-1 cells = test: Flow cytometry binding to native CD73, MK-1 cells; conditions: as measured by flow cytometry; read-out: KD, CD73 on the surface of cynomolgus MK-1 cells
Procedure: as §3, §2, §4

What does the source list for “MEDI9447: IgG1 with CD730010-derived VL of SEQ ID NO: 68 and VH of SEQ ID NO: 82”?
ka (Cynomolgus CD73 ECD): 2.71e+06 M⁻¹ s⁻¹; kd (Cynomolgus CD73 ECD): 1.76e-05 s⁻¹; Kd (huCD73): ~0.08 nM; Kd ([1]; as measured by flow cytometry, read-out: KD, CD73 on the surface of MB-MDA-231 cells): ~0.15 nM; KD values by flow cytometry, fold greater than those determined by SPR ([1]; human, murine and cynomolgus CD73): 13—126 fold; ka (Murine CD73 ECD): 2.41e+06 M⁻¹ s⁻¹; kd (Murine CD73 ECD): 2.32e-06 s⁻¹; Kd (murine CD73): ~0.13 nM; kd (human CD73 ECD; Human CD73 ECD): 1.06e-05 s⁻¹; ka (human CD73 ECD; antibody captured, Human CD73 ECD in mobile phase): 2.57e+06 M⁻¹ s⁻¹; Kd (native CD73, MK-1 cells): ~0.08 nM
